Test results published in PMC3240692 (The FEBS journal, 2011).

How the values were obtained:
BcUGlcAE = target: T1, BcUGlcAE (Bacillus cytotoxicus, UniProt A7GQD3); assay: HPLC product assay, inhibition; type: biochemical; settings: 1 mM UDP-GlcA, 1 mM NAD+, 50 mM phosphate pH 7.6, 37 °C
T1 sequence (A7GQD3 1-314): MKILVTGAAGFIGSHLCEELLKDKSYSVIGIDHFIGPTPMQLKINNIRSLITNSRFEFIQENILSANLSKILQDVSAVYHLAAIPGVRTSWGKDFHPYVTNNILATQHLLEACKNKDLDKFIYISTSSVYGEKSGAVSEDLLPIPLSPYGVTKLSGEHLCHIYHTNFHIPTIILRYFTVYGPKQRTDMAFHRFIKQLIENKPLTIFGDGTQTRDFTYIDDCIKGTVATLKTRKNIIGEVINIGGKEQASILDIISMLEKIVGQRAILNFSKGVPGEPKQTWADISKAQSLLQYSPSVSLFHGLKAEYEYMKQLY

HPLC [1] = substrate: Cc1cn([C@H]2C[C@H](O)[C@@H](COP(=O)(O)OP(=O)(O)O[C@H]3O[C@H](C(=O)O)[C@@H](O)[C@H](O)[C@H]3O)O2)c(=O)[nH]c1=O; assay: HPLC; type: biochemical, Bacillus cytotoxicus; settings: 1 mM NAD+, 50 mM sodium phosphate pH 7.6, 37 °C
HPLC [2] = substrate: O=C(O)[C@H]1O[C@H](OP(=O)(O)OP(=O)(O)OC[C@H]2O[C@@H](n3ccc(=O)[nH]c3=O)[C@H](O)[C@@H]2O)[C@H](O)[C@@H](O)[C@@H]1O; assay: HPLC; type: biochemical, Bacillus cytotoxicus; settings: 1 mM NAD+, 50 mM sodium phosphate pH 7.6, 37 °C

O=c1ccn([C@@H]2O[C@H](COP(=O)(O)OP(=O)(O)O)[C@@H](O)[C@H]2O)c(=O)[nH]1 [UDP]
inhibition (BcUGlcAE): the epimerase was highly inhibited by UDP and to a lesser extent by UDP-Xyl

O=c1ccn([C@@H]2O[C@H](COP(=O)(O)OP(=O)(O)O[C@H]3OC[C@@H](O)[C@H](O)[C@H]3O)[C@@H](O)[C@H]2O)c(=O)[nH]1 [UDP-Xyl]
inhibition (BcUGlcAE): the epimerase was highly inhibited by UDP and to a lesser extent by UDP-Xyl

B1: BcUGlcAE (Bacillus cytotoxicus NVH 391-98) (protein)
chain: MKILVTGAAGFIGSHLCEELLKDKSYSVIGIDHFIGPTPMQLKINNIRSLITNSRFEFIQENILSANLSKILQDVSAVYHLAAIPGVRTSWGKDFHPYVTNNILATQHLLEACKNKDLDKFIYISTSSVYGEKSGAVSEDLLPIPLSPYGVTKLSGEHLCHIYHTNFHIPTIILRYFTVYGPKQRTDMAFHRFIKQLIENKPLTIFGDGTQTRDFTYIDDCIKGTVATLKTRKNIIGEVINIGGKEQASILDIISMLEKIVGQRAILNFSKGVPGEPKQTWADISKAQSLLQYSPSVSLFHGLKAEYEYMKQLY
Km (HPLC [1]): 180 ± 10 µM
kcat (HPLC [1]): 2.1 ± 0.1 s⁻¹
kcat/Km (HPLC [1]): 12000 ± 400 M⁻¹ s⁻¹
Km (HPLC [2]): 120 ± 10 µM
kcat (HPLC [2]): 3.2 ± 0.1 s⁻¹
kcat/Km (HPLC [2]): 26000 ± 1400 M⁻¹ s⁻¹
